Measurements from publication PMC4198130, “Protein Interactions of the Vesicular Glutamate Transporter VGLUT1” (PLoS ONE, 2014).

B1: His-tagged VGLUT1 C-terminal peptide (amino acids 513-549) (domain or fragment, rat, UniProt Q62634 513-549, looked up)
chain: HDQLAGSDESEMEDEVEPPGAPPAPPPSYGATHSTVQ
notes: VGLUT1 (vesicular glutamate transporter 1), rat, amino acids 513-549 of the C-terminus (acidic cluster, first polyproline domain PP1, PEST); Cloned in the Ligand Expression Vector (Panomics/Affymetrix); also called His-PP1; His-VGLUT1 PP1; source: E. coli, purified (Ni-NTA, imidazole elution, dialysis) by the methods; soluble bacterial extract by the results and the legend
B2: VGLUT1 from rat brain extract (natural protein, rat (endogenous in rat brain), UniProt Q62634 1-560, looked up)
chain: MEFRQEEFRKLAGRALGRLHRLLEKRQEGAETLELSADGRPVTTHTRDPPVVDCTCFGLPRRYIIAIMSGLGFCISFGIRCNLGVAIVSMVNNSTTHRGGHVVVQKAQFNWDPETVGLIHGSFFWGYIVTQIPGGFICQKFAANRVFGFAIVATSTLNMLIPSAARVHYGCVIFVRILQGLVEGVTYPACHGIWSKWAPPLERSRLATTAFCGSYAGAVVAMPLAGVLVQYSGWSSVFYVYGSFGIFWYLFWLLVSYESPALHPSISEEERKYIEDAIGESAKLMNPVTKFNTPWRRFFTSMPVYAIIVANFCRSWTFYLLLISQPAYFEEVFGFEISKVGLVSALPHLVMTIIVPIGGQIADFLRSRHIMSTTNVRKLMNCGGFGMEATLLLVVGYSHSKGVAISFLVLAVGFSGFAISGFNVNHLDIAPRYASILMGISNGVGTLSGMVCPIIVGAMTKHKTREEWQYVFLIASLVHYGGVIFYGVFASGEKQPWAEPEEMSEEKCGFVGHDQLAGSDESEMEDEVEPPGAPPAPPPSYGATHSTVQPPRPPPPVRDY
notes: VGLUT1, endogenous in rat brain; source: endogenous, detergent-solubilized rat brain extract

Key:
GST-Lyn-SH3 (Panomics) [1] = target: T1, GST-Lyn-SH3 (Panomics) (human, UniProt P07948 63-123); experiment: peptide or protein array; TranSignal SH3 and WW Domain Arrays (Panomics/Affymetrix): purified GST fusions of human SH3 or WW domains immobilised on a membrane, in duplicate at 100 ng; His-PP1 in solution, detected with anti-His antibody (methods: purified His-PP1; results and legend: bacterial extract with the tagged protein); settings: both partners purified
T1 construct: Lyn, human, SH3 domain; also called SH3 domain of Lyn; source: bought: Panomics (purified GST-Lyn-SH3 protein; also on the TranSignal SH3 Domain Array)
T1 sequence (P07948 63-123): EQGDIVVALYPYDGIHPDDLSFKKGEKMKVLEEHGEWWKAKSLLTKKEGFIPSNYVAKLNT

[2] = target: T2, GST fusion of the SH3 domain of sorting nexin 9 (Panomics) (human, UniProt Q9Y5X1 1-62); experiment: as above; settings: both partners purified
T2 construct: sorting nexin 9, human, SH3 domain; also called SNX9; source: bought: Panomics/Affymetrix (on the TranSignal SH3 Domain Array; GST fusion for pull-down)
T2 sequence (Q9Y5X1 1-62): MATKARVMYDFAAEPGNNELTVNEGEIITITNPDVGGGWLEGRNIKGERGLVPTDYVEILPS

[3] = target: T3, GST fusion of the SH3 domain of Hck (SH3 domain array) (human, UniProt P08631 78-138); experiment: as above; settings: both partners purified
T3 construct: Hck, human, SH3 domain; source: bought: Panomics/Affymetrix TranSignal SH3 Domain Array (purified GST fusion on a membrane)
T3 sequence (P08631 78-138): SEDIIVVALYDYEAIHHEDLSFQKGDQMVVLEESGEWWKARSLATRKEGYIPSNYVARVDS

[4] = target: GST fusion of the SH3 domain of Src (SH3 domain array) (human, UniProt P12931 84-145); experiment: as above; settings: both partners purified
[5] = target: T4, GST fusion of the SH3 domain of EPS8 (Panomics) (human, UniProt Q12929 531-590); experiment: as above; settings: both partners purified
T4 construct: EPS8, human, SH3 domain; source: bought: Panomics/Affymetrix (on the TranSignal SH3 Domain Array; GST fusion for pull-down)
T4 sequence (Q12929 531-590): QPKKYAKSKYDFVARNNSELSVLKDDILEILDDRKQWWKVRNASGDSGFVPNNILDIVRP

[6] = target: T5, GST fusion of the SH3 domain of Fyn (SH3 domain array) (human, UniProt P06241 82-143); experiment: as above; settings: both partners purified
T5 construct: Fyn, human, SH3 domain; source: bought: Panomics/Affymetrix TranSignal SH3 Domain Array (purified GST fusion on a membrane)
T5 sequence (P06241 82-143): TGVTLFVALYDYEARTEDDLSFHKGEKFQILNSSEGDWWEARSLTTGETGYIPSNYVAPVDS

GST-Lyn-SH3 (Panomics) [7] = target: T1, GST-Lyn-SH3 (Panomics); experiment: pull-down; GST fusions of SH3 or WW domains on glutathione sepharose beads, incubated with detergent-solubilized (2% TX-100) rat brain extract, RT 60 min; bound VGLUT1 by immunoblot, band intensity normalised to lysate; settings: one partner purified
[8] = target: T6, GST fusion of the third SH3 domain of Nck1 (human, UniProt P16333 190-252); experiment: as above; settings: one partner purified
T6 construct: Nck1, human, third SH3 domain (D3); also called Nck1 D3

[9] = target: T7, GST fusion of the SH3 domain of human Lyn (pGEX, from Clifford Lowell) (human, UniProt P07948 63-123); experiment: as above; settings: one partner purified
T7 construct: Lyn, human, SH3 domain; That the pGEX constructs from C; also called GST-Lyn
T7 sequence (P07948 63-123): as the sequence (P07948 63-123) above

[10] = target: T8, GST fusion of the second SH3 domain of Nck1 (human, UniProt P16333 106-165); experiment: as above; settings: one partner purified
T8 construct: Nck1, human, second SH3 domain (D2); also called Nck1 D2

[11] = target: T9, GST fusion of the first SH3 domain of Nck2 (human, UniProt O43639 2-61); experiment: as above; settings: one partner purified
T9 construct: Nck2, human, first SH3 domain (D1); also called Nck2 D1
T9 sequence (O43639 2-61): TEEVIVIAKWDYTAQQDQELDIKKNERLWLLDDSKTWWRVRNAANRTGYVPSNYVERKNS

[12] = target: T10, GST fusion of the SH3 domain of human Fyn (pGEX, from Clifford Lowell) (human, UniProt P06241 82-143); experiment: as above; settings: one partner purified
T10 construct: Fyn, human, SH3 domain; also called GST-Fyn
T10 sequence (P06241 82-143): as the sequence (P06241 82-143) above

Binder | binding result (GST-Lyn-SH3 (Panomics) [1]) | binding result [2] | binding result [3] | binding result [4] | binding result [5] | binding result [6] | band intensity normalised to lysate (GST-Lyn-SH3 (Panomics) [7]) | band intensity normalised to lysate [8] | band intensity normalised to lysate [9] | band intensity normalised to lysate [10] | band intensity normalised to lysate [11] | band intensity normalised to lysate [12]
B1 | binds | binds | binds | binds | binds | binds |  |  |  |  |  | 
B2 |  |  |  |  |  |  | 0.718 a.u. | 0.183 a.u. | 0.877 a.u. | 0.763 a.u. | 0.103 a.u. | 0.362 a.u.
